Laboratory results: patent publication US7387779B2, “Anti-angiogenic proteins and fragments and methods of use thereof” (Beth Israel Deaconess Medical Center, priority 1998, dated 2008)

Legend:
C-PAE cells = assay: Cell attachment assay; type: cell-based, bovine
Procedure: The attachment of HUVECs to Tumstatin-coated plates in the presence of integrin subunits α1 through α6, β1, and αvβ3 integrin blocking antibody was examined. This assay was performed according to the method of Senger et al. (Senger, D. R. et al, 1997, Proc. Natl. Acad. Sci. USA 94:13612-7), with minor modification. 96-well plates were coated with either human Tumstatin, mouse laminin-1, or human Type IV collagen (Collaborative Biomedical Prods., Bedford, Mass., USA) at a concentration of 10 μg/ml overnight at 37° C. Vitronectin (Collaborative Biomed. Prods.) at a concentration of 0.5 μg/ml was then used to coat the plates. The remaining protein binding sites were blocked with 100 mg/ml of BSA (Sigma Chemical Co., St. Louis, Mo., USA) in PBS for 2 hours. HUVEC cells were grown to subconfluence (70-80%) in EGM-2 medium, gently trypsinized and resuspended in serum-free medium (1.5×10^5 cells/ml). The cells were mixed with 10 μg/ml of either mouse IgG, (control) (Life Technologies/Gibco BRL, Gaithersberg, Md., USA) or antibody (mouse monoclonal antibody to the human β1 integrin (clone P4C10) (Life Technologies/Gibco BRL); monoclonal antibody to human integrins α1 through α.6 (CHEMICON Int'l, Temecula, Calif., USA); αvβ3 integrin (clone LM609) (CHEMICON Int'l) and incubated for 15 minutes at room temperature, with gentle agitation. One hundred microliters of the cell suspension was then added to each well and incubated for 45 minutes at 37° C. Unattached cells were removed by washing, and the number of attached cells were counted after staining with methylene blue. C-PAE cells were used in separate experiments, following the above procedure.
To determine the attachment of C-PAE cells to plates coated with the Tumstatin deletion mutants, the cell attachment assay was performed as described above (see, e.g., Example 28). Rabbit antibody raised against Tum-4 was prepared as previously described (Kalluri et al., 1997, J. Clin. Invest. 99:2470-8). Goat anti-rabbit IgG antibody conjugated with horseradish peroxidase was purchased from Sigma Chemical Company (St. Louis, Mo., USA). […] Plates coated with Tum-1 (FIG. 36A) were also treated with anti-Tum-4 antibody (1:200 dilution) to block the previously reported (Shahan et al, 1999, Cancer Res. 59:4584-90) αvβ3 binding site, as well as the αvβ5 binding site.
Cell Attachment Activity: Cell attachment using endothelial cells was performed as described above. HUVEC or C-PAE cells were incubated with monoclonal anti-human integrin antibodies, control mouse IgG (10 μg/ml), or synthetic peptide, plated onto pre-coated 96-well plates, and the number of cells attaching to the plates was determined using measurement of methylene blue staining at OD655. […] CNGRC peptide was used as a control.
The cell attachment assay was performed as described above.
Tumstatin produced in 293 human embryonic kidney cells was used to coat tissue culture plates. […] PBS and BSA served as positive and negative controls, respectively.

Caspase-3 in C-PAE cells = assay: Caspase-3 assay; type: cell-based, bovine; conditions: for effect on Caspase-3 activity: 5 μg/ml
Procedure: Tumstatin also altered cell morphology of C-PAE cells as monitored by phase contrast microscopy. After treating cells with 20 μg/ml of Tumstatin in the presence of 10% FCS for 24 hours on fibronectin-coated plates, the typical morphological features of apoptotic cells, membrane blebbing, cytoplasmic shrinkage, and chromatin condensation could be observed. […] Caspase-3 assay: Caspase-3 (CPP32) is an intracellular protease activated at the early stage of apoptosis, and initiates cellular breakdown by degrading structural and DNA repair proteins (Casciola-Rosen, L. et al., 1996, J. Exp. Med. 183:1957-64; Salvesen, G. S. et al., 1997, Cell 91:443-46). The protease activity of Caspase-3 was measured spectrophotometrically by detection of the chromophore (p-nitroanilide) cleaved from the labeled substrate (DEVD-pNA). C-PAE cells or PC-3 cells (0.5×10^6 per well) were plated onto a 6-well plate precoated with fibronectin (10 μg/ml) in DMEM supplemented with 10% FCS, and incubated overnight. The next day, the medium was replaced with DMEM containing 2% FCS and then incubated overnight at 37° C. Then cells were then stimulated with bFGF (3 ng/ml) in DMEM supplemented with 2% FCS, and also containing either TNF-α (80 ng/ml, positive control) or Tumstatin (10 μg/ml), and incubated for 24 hours. Controls received PBS buffer. After 24 hours, the supernatant cells were collected, and attached cells were trypsinized and combined with the supernatant cells. Cells were counted and resuspended in cell lysis buffer (Clontech) at a concentration of 4×10^7 cells/ml. The rest of the protocol followed the manufacturer's instructions (Clontech). A specific inhibitor of Caspase-3, DEVD-fmk (Asp-Glu-Val-Asp-fluoromethyl ketone) was used to confirm the specificity of the assay. The absorbance was measured in a microplate reader (Bio-Rad, Hercules, Calif., USA) at 405 nm. The assay was repeated three times for each cell type.
Apoptosis was also evaluated by measuring Caspase-3 activity as described in Example 27, above. The results are shown in FIG. 35, which is a histogram showing Caspase-3 activity as a measure of absorbance at OD405 (y-axis) of C-PAE cells treated (x-axis) with 5 μg/ml Tum-1, Tum-2, Tum-3 or Tum-4, or 80 ng/ml TNF-α or PBS buffer (control).
Caspase-3 activity was also assayed as described above. DEVD-fmk, a specific caspase-3 inhibitor, was used as an internal control to show specificity of Tumstatin-44-131. TNF-α (80 ng/ml) was used as a positive control. The experiments were repeated three times.
The protease activity of Caspase-3 in cells treated with T3 peptide was measured spectrophotometrically by detection of the chromophore (p-nitroanilide) cleaved from the labeled substrate (DEVD-pNA). […] In PC-3 nonendothelial cells, there was no difference in Caspase-3 activity between control treatments and T3 peptide-treated cells.

Molecule: LQRFTTMPFLFCNVNDVCNF [T3]
- attachment to T3-coated plates with anti-αv or anti-β1 integrin antibody (C-PAE cells): did not inhibit
- attachment to T3 peptide-coated plates with anti-β3 integrin antibody (C-PAE cells): inhibited by a preincubation with anti-β3 integrin antibody
- inhibition of cell attachment to Tum-4-coated plates by peptide (C-PAE cells): failed to inhibit
- inhibition of cell attachment onto Tum-5-coated plates by peptide (C-PAE cells; 2.5 μg/ml peptide): significantly inhibited
- inhibition of cell attachment to Tumstatin-coated plates by peptide (C-PAE cells; 10 μg/ml peptide, 293-produced Tumstatin coating): 46.4%
- binding to vitronectin-coated plates (2.5 μg/ml) in the presence of peptide (C-PAE cells; 0.1, 1.0, 10.0 μg/ml peptide): not inhibited
- fold increase in Caspase-3 activity (Caspase-3 in C-PAE cells; 50 μg/ml T3 peptide, TNF-α 80 ng/ml): 3.6 fold
- fold increase in Caspase-3 activity (Caspase-3 in C-PAE cells; T3 peptide at 10 mg/ml (so in the source)): 1.6 fold

B1: Tum-1: residues 54 to 244 of Tumstatin, lacking the N-terminal 53 amino acids (SEQ ID NO:22) (protein)
chain: QRAHGQDLGTLGSCLQRFTTMPFLFCNVNDVCNFASRNDYSYWLSTPALMPMNMAPITGRALEPYISRCTVCEGPAIAIAVHSQTTDIPPCPHGWISLWKGFSFIMFTSAGSEGTGQALASPGSCLEEFRASPFLECHGRGTCNYYSNSYSFWLASLNPERMFRKPIPSTVKAGELEKIISRCQVCMKKRH
modifications: Tum-1 (Tumstatin N-53) (amino acids 54-244 of SEQ ID NO10)
- inhibition of attachment of C-PAE cells to coated plates by αvβ3 antibody (C-PAE cells; label = plate coating): 55.9%
- inhibition of binding of C-PAE cells to coated plates by αvβ5 antibody (C-PAE cells; label = plate coating): not inhibited
- effect on Caspase-3 activity (Caspase-3 in C-PAE cells): increased

B2: Tum-4: residues 181 to 244 of Tumstatin (SEQ ID NO:25) (protein)
chain: EFRASPFLECHGRGTCNYYSNSYSFWLASLNPERMFRKPIPSTVKAGELEKIISRCQVCMKKRH
modifications: Tum-4 (amino acids 181-244 of SEQ ID NO10)
- inhibition of attachment of C-PAE cells to coated plates by αvβ3 antibody (C-PAE cells; label = plate coating): 62.6%
- inhibition of binding of C-PAE cells to coated plates by αvβ5 antibody (C-PAE cells; label = plate coating): not inhibited
- effect on Caspase-3 activity (Caspase-3 in C-PAE cells): did not

B3: Tumstatin-44-131: residues 44 to 131 of full-length Tumstatin (SEQ ID NO:33) (protein)
chain: FSFLFVQGNQRAHGQDLGTLGSCLQRFTTMPFLFCNVNDVCNFASRNDYSYWLSTPALMPMNMAPITGRALEPYISRCTVCEGPAIAI
modifications: Tumstatin-45-132 (amino acids 45-132 of SEQ ID NO10)
- attachment to coated plates in the presence of RGD peptide (CDCRGDCFC) (C-PAE cells; label = plate coating): not inhibited
- fold increase in Caspase-3 activity (Caspase-3 in C-PAE cells; 10 μg/ml E. Coli-expressed Tumstatin-44-131, TNF-α 80 ng/ml): 4.5 fold

B4: Tum-2: residues 1 to 132 of Tumstatin (SEQ ID NO:23) (protein)
chain: GLKGKRGDSGSPATWTTRGFVFTRHSQTTAIPSCPEGTVPLYSGFSFLFVQGNQRAHGQDLGTLGSCLQRFTTMPFLFCNVNDVCNFASRNDYSYWLSTPALMPMNMAPITGRALEPYISRCTVCEGPAIAI
modifications: Tum-2 (amino acids 1-132 of SEQ ID NO10)
- inhibition of attachment of C-PAE cells to coated plates by αvβ3 antibody (C-PAE cells; label = plate coating): 69.8%
- inhibition of binding of C-PAE cells to coated plates by αvβ5 antibody (C-PAE cells; label = plate coating): not inhibited
- effect on Caspase-3 activity (Caspase-3 in C-PAE cells): increased
